Assays:
divarinic acid (DVA) = assay: Screening of MPT library hits in Yarrowia, DVA feed (Example 2); assay type: cell-based; details: DVA Feed (96 h); for CBGVA: 2 mM DVA, minimal media, 0.5% ethanol, strain sCL-SE-0128, product accumulated; for CBGVA/FCBGVA: product ratio
Protocol: (§1) As described in detail below, plasmid pCL-SE-0337.MPT21,26,31 were transformed into strain sCL-SE-0128 and 4 separate colonies of each were patched and precultured for 48 h. Assay cultures consisted of minimal media with 100 mM MES pH 6.5, 0.5% ethanol and 2 mM olivetolic or divarinic acid (DVA). Cultures with olivetolic acid were quenched with equal volume of ethanol after 48 h total growth while cultures with DVA with quenched after 96 h total growth. Enzymes produced CBGA and FCBGA from olivetolic acid and CBGVA and FCBGVA from DVA. Averages and standard deviations were calculated from replicates.
(§2) Overnight YPD (10 g/L yeast extract, 20 g/L peptone, 2% dextrose) cultures were inoculated from glycerol stocks of the appropriate strain and grown at 30° C. with 250 rpm shaking. Once cultures had reached an OD600 of 4-6, cultures were centrifuged at 500×g for 5 min, supernatants were discarded, and cell pellets were resuspended in equal volume of water. Resuspended cells were centrifuged at 500×g for 5 min, supernatants were discarded, and cells were resuspended in a volume (75 μL×OD×Vculture) of transformation cocktail (45% PEG-400, 0.1 M LiAc, 0.1 M DTT, and 25 ug/100 μL SS Salmon Sperm DNA). For each transformation, >1 μg of plasmid DNA was added to 55 μL cells/transformation cocktail and vortexed for 2 s. Transformations were incubated at 39° C. for 1 h with 250 rpm shaking. Transformations were resuspended in 750 μL YPD with 1 M sorbitol and recovered at 30° C. overnight with 250 rpm shaking. The next day, transformations were centrifuged at 500×g for 5 min, supernatants were discarded, and cell pellets were resuspended in 750 YPD. Resuspended transformations were plated on YPD with appropriate selection or YNBD (6.71 g/L yeast nitrogen base+nitrogen, 0.5% casamino acids, 2% dextrose) agar plates and grown at 30° C. for 2 days. Individual colonies were patched onto YPD plates with appropriate selection or YNBD plates and grown at 30° C. overnight. Patches were used to inoculate 0.5 mL YPD with appropriate selection or YNBD precultures in 96 w blocks and grown at 30° C. for 24-48 h with 1000 rpm shaking. For assays, 0.5 mL YPD with appropriate selection or YNBD cultures containing substrate were inoculated with 2 μL from precultures and grown at 30° C. for 2-4 days with 1000 rpm shaking with 2% glucose added every 24 h. Assay cultures were quenched by addition of 0.5 mL ethanol with 0.2% formic acid and 0.5 mg/mL pentyl-benzoic acid. Precipitates were pelleted by centrifuging at 4600×g for 10 min and then 200 μL was transferred to fresh plates, sealed, and analyzed via HPLC.
(§3) All samples were quenched with equal volume of EtOH containing 0.2 mg/mL internal standard (3,5-Diisopropyl-2-hydroxybenzoic acid CAS #2215-21-6) centrifuged, and clarified solutions were analyzed by HPLC-MS
(§4) • Column: 2.1×50 mm COSMOCORE PBr (Nacalai USA, Inc.) • Mobile Phase: A; 0.1% formic acid in water, B; 0.1% formic acid in acetonitrile • Flow: 0.45 mL/min • Temp: % 50 Celsius • Gradient: 20%B at 0 min, 70%B at 2.3 min, 89% B at 4.2 min, 20% B at 4.3 min, 20%B at 6 min

olivetolic acid [1] = assay: MPT fusions with GPS1.1 vs unfused MPTs, OA feed (Example 8, Table 9); assay type: cell-based, Yarrowia; details: 2 mM olivetolic acid, 48 h quench; for CBGA / FCBGA: 2% glucose, strain sCL-SE-0128; for CBGA/FCBGA: product ratio
Protocol: (§5) As described below, plasmids pCL-SE-0406, pCL-SE-0664, pCL-SE-0663, pCL-SE-0662, pCL-SE-0380 (MPT4), pCL-SE-0337.MPT21, pCL-SE-0337.MPT26, and pCL-SE-0337.MPT31 were transformed into strain sCL-SE-0128. Multiple colonies per transformation were precultured for 48 h in YNB containing glucose (2%), casamino acids (0.5%), and MES (100 mM pH 6.5). Pre-culture was used to inoculate assay medium comprised of YNB containing glucose (2%), casamino acids (0.5%), MES (100 mM pH 6.5), and olivetolic acid (2 mM). Cultures were quenched with equal volume of ethanol after 48 h total growth and assayed for CBGA and FCBGA. Averages and standard deviations were calculated from replicates.
as §2, §3, §4

olivetolic acid [2] = assay: Screening of MPT library hits in Yarrowia, OA feed (Example 2); assay type: cell-based; details: OA Feed (48 h); for CBGA: 2 mM olivetolic acid, minimal media, 0.5% ethanol, strain sCL-SE-0128, product accumulated; for CBGA/FCBGA: product ratio
Protocol: as §1, §2, §3, §4

divarinic acid [3] = assay: GPS1.1 fusions of MPT21 mutants, DVA feed (Example 9, Table 12); assay type: cell-based, Yarrowia; details: 2 mM divarinic acid, 2% glucose, quenched after 48 h; strain sCL-SE-0128
Protocol: as §2, §3, §4

olivetolic acid [4] = assay: GPS-APT fusions, OA feed in vivo assay (Example 11); assay type: cell-based, Yarrowia
Outline: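 Yeast strain sCL-SE-0128 carrying GPS1.1–APT73.77 fusion plasmids (N- or C-terminal, various linkers) was precultured 48 h, then grown in YNB/glucose/casamino acids/MES pH 6.5 with 2 mM olivetolic acid. After 48 h total growth, cultures were quenched with equal-volume ethanol and CBGA/FCBGA measured by HPLC-MS against internal standard.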

olivetolic acid [5] = assay: MPT4.1 with and without GPS1.1 fusion vs MPT4 fusion, in vivo assay (Example 5); assay type: cell-based, Yarrowia; details: 3 mM olivetolic acid
Protocol: As described below, plasmids pCL-SE-0337.MPT4.1 and pCL-SE-0753 were transformed into strain sCL-SE-0128. Multiple colonies per transformation were precultured for 24 h in YNB containing glucose (2%), casamino acids (0.5%), and MES (100 mM pH 6.5). Pre-culture was used to inoculate assay medium comprised of YNB containing glucose (6%), casamino acids (0.5%), MES (100 mM pH 6.5), and olivetolic acid (3 mM). Cultures were quenched with equal volume of ethanol after 48 h total growth and assayed for CBGA and FCBGA. Averages and standard deviations were calculated from replicates.
as §2, §3, §4

olivetolic acid [6] = assay: GPS1.1 fusions of MPT21 mutants, OA feed (Example 8, Table 10); assay type: cell-based, Yarrowia; details: 3 mM olivetolic acid, 6% glucose, 48 h quench; strain sCL-SE-0128
Protocol: as §2, §3, §4

divarinic acid [7] = assay: MPT fusions with GPS1.1 vs unfused MPTs, DVA feed (Example 9, Table 11); assay type: cell-based, Yarrowia; details: 2 mM divarinic acid
Protocol: as §5, with “pCL-SE-0337.MPT21,” for “pCL-SE-0337.MPT21, pCL-SE-0337.MPT26, and pCL-SE-0337.MPT31”, “divarinic” for “olivetolic”, “quenched” for “quenched with equal volume of ethanol”, “CBGVA” for “CBGA”, “FCBGVA.” for “FCBGA.”
as §2, §3, §4

[8] = olivetolic acid feed as in Example 8, 48 h quench, strain sCL-SE-0128
[9] = 6% glucose, 48 h quench, strain sCL-SE-0128
[10] = 2% glucose, quenched after 48 h, strain sCL-SE-0128

Molecule | CBGVA (divarinic acid (DVA)) | CBGVA/FCBGVA (divarinic acid (DVA)) | CBGA (olivetolic acid [1]) | FCBGA (olivetolic acid [1]) | CBGA/FCBGA (olivetolic acid [1]) | CBGA (olivetolic acid [2]) | CBGA/FCBGA (olivetolic acid [2]) | further results
MPT31 (protein, MPT31 (recombinant membrane-bound prenyltransferase)) MSDNSIATKILNFGHACWKLQRPYVVKGMISIACGLFGRELLHNTNLISWGLMWKAFFALVPILSFNFFAAIMNQIYDLHIDRINKPDLPLASGEISVNTAWIMSIIVALTGLIVTIKLKSAPLFVFIYIFGIFAGFAYSVPPIRWKQNPSTNFLITISSHVGLAFTSYYASRAALGLPFELRPSFTFLLAFMTVMGMTIAFAKDISDIEGDAKYGVSTVATKLGARNMTFVVSGVLLLNYLVSISIGIIWPQVFKSNIMILSHAILAFWLILQTRDFALTNYDPEAGRRFFEFIWLLYYAEYLVYVFI | 260 ± 79 µM | 22.6 | 40 ± 12 µM | 3 ± 2 µM | 13.4 | 175 ± 63 µM | 13.9 | 
MPT26 (protein, MPT26 (recombinant membrane-bound prenyltransferase)) MSDNSIATKILNFGHTCWKLQRPYVVKGMISIACGLFGKELLHNTNLISWGLMWKAFFALVPILSFNFFAAIMNQIYDVDIDRINKPDLPLVSGEMSIETAWILSIIVALTGLIVTIKLKSAPLFVFIYIFGIFAGFAYSVPPIRWKQNPSTNFLITISSHVGLAFTSYSATTSALGLPFVWRPAFSFIIAFMTVMGMTIAFAKDISDIEGDAKYGVSTVATKLGARNMTFVVSGVLLLNYVAAILAGIIWPQAFNSNVMLLSHAILAFWLILQTRDFALTNYDPEAGRRFFEFIWLLYYAEYFVYVFI | 620 ± 134 µM | 13.7 | 61 ± 5 µM | 14 ± 1 µM | 4.4 | 261 ± 62 µM | 4.5 | 
GPS1.1-F11-MPT4.1: fusion of GPS1.1 and MPT4.1 via F11 linker, SEQ ID NO: 56 (protein, GPS1.1-F11-MPT4.1, geranyl diphosphate synthase, point mutant membrane-bound prenyltransferase fusion protein) MSKAKFESVFPRISEELVQLLRDEGLPQDAVQWFSDSLQYNCVGGKLNRGLSVVDTYQLLTGKKELDDEEYYRLALLGWLIELLQAFWLVSDDIMDESKTRRGQPCWYLKPKVGMIAIWDAFMLESGIYILLKKHFRQEKYYIDLVELFHDISFKTELGQLVDLLTAPEDEVDLNRFSLDKHSFIVRYKTAYYSFYLPVVLAMYVAGITNPKDLQQAMDVLIPLGEYFQVQDDYLDNFGDPEFIGKIGTDIQDNKCSWLVNKALQKATPEQRQILEDNYGVKDKSKELVIKKLYDDMKIEQDYLDYEEEVVGDIKKKIEQVDESRGFKKEVLNAFLAKIYKRQKGGAEAAAKEAAAKAGGSGGGSGGGGSGGSGGGGSGGGGSMSDNSIATKILNFGHTCWKLQRPYAVKGMISIACGLFGRELFNNRHLFSWGLMWKAFFALVPILSFNFFAAIMNQIYDVDIDRINKPDLPLVSGEMSIETAWILSIIVALTGLIVTIKLKSAPLFVFIYIFGIFAGFAYSVPPIRWKQYPFTNFLITISSHVGLAFTSYSATTSALGLPFVWRPAFSFIIAFMTVMGMTIAFAKDISDIEGDAKYGVSTVATKLGARNMTFVVSGVLLLNYLVSISIGIIWPQVFKSNIMILSHAILAFCLIFQTRELALANYASAPSRQFFEFIWLLYYAEYFVYVFI |  |  |  |  |  |  |  | CBGVA (divarinic acid [3]): 91 ± 6 µM; FCBGVA (divarinic acid [3]): 0 ± 0 µM; CBGA (olivetolic acid [4]; [8]): 365 ± 22 µM; FCBGA (olivetolic acid [4]; [8]): 26 ± 1 µM; CBGA/FCBG (olivetolic acid [4]; olivetolic acid feed, 48 h quench, product ratio): 14.3; CBGA (olivetolic acid [5]; [9]): 425 ± 11 µM; FCBGA (olivetolic acid [5]; [9]): 34 ± 1 µM; CBGA/FCBGA (olivetolic acid [5]; 48 h quench, product ratio): 12.6; increase of the titer of CBGA (olivetolic acid [5]; fusion vs unfused MPT4.1, 48 h): 67%; CBGA (olivetolic acid [6]): 358 ± 0 µM; FCBGA (olivetolic acid [6]): 27 ± 0 µM
MPT21 (protein, MPT21 (recombinant membrane-bound prenyltransferase)) MSDNSIATKILNFGHTCWKLQRPYVVKGMISIACGLFGKELLHNTNLISWGLMWKAFFALVPILSFNFFAAIMNQIYDVDIDRINKPDLPLVSGEMSIETAWILSIIVALTGLIVTIKLKSAPLFVFIYIFGIFAGFAYSVPPIRWKQNPSTNFLITISSHVGLAFTSYYASRAALGLPFELRPSFTFLLAFMTVMGMTIAFAKDISDIEGDAKYGVSTVATKLGARNMTFVVSGVLLLNYVAAILAGIIWPQAFNSNVMLLSHAILAFCLIFQTRELALANYASAPSRQFFEFIWLLYYAEYFVYVFI | 647 ± 45 µM | 6.0 | 109 ± 27 µM | 43 ± 10 µM | 2.6 | 310 ± 11 µM | 3.1 | CBGVA (divarinic acid [7]; [10]): 9 ± 3 µM; FCBGVA (divarinic acid [7]; [10]): 1 ± 1 µM; CBGVA/FCB (divarinic acid [7]; 48 h, product ratio): 10.8

— patent US20240228986A1, “ENGINEERED CELLS, ENZYMES, AND METHODS FOR PRODUCING CANNABINOIDS” (priority 2021, published 2024)
